Experimental findings from US20150344571A1 (KANGWON NATIONAL UNIVERSITY UNIVERSITY INDUSTRY COOPERATION …, published 2015) are described below.

In general, Kd refers to the concentration at which binding is half-saturated. A high value points to weaker binding. As a reminder, the koff is the first-order rate constant of dissociation. Usually kon stands for the rate constant with which the complex forms.

For experiment [1], the target named is T1, human L1CAM (purified extracellular domain) (human, UniProt P32004 20-1112).
T1 construct: range 1-1112; Expressed in HEK293T from pJK-dhfr2-L1-monomer; The stated range 1-1112 begins at residue 1 of the precursor; no signal peptide limits are stated; also called human L1CAM antigen
T1 sequence (P32004 20-1112 limits assumed, form in doubt): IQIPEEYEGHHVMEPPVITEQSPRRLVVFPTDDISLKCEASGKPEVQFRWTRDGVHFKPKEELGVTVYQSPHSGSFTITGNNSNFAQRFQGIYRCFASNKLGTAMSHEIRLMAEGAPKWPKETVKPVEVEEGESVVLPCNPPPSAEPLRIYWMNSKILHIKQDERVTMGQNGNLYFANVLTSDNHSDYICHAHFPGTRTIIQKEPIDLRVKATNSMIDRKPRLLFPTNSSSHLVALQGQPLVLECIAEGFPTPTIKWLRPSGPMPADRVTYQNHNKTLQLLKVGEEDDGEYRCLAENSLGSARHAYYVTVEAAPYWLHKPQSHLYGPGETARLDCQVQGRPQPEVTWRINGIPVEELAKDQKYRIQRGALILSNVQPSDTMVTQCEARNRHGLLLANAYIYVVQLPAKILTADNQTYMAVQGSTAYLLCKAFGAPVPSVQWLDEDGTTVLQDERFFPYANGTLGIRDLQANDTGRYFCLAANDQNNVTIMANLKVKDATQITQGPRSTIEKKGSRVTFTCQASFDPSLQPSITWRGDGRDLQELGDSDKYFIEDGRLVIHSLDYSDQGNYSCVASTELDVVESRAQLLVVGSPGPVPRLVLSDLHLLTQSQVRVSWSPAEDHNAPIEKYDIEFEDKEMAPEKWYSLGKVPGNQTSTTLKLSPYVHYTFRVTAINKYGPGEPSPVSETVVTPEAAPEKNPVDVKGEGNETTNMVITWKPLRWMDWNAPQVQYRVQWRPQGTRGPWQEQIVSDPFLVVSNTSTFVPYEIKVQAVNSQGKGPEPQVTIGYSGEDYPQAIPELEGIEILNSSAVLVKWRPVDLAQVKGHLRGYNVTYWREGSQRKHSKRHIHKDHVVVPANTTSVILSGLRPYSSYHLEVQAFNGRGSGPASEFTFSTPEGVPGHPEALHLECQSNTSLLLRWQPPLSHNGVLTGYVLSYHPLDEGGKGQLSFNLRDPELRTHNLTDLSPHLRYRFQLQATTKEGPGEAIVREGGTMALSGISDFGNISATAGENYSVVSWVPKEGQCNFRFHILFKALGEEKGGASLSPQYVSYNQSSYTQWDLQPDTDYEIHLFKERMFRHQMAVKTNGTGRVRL
In words: competitive ELISA (soluble human L1CAM against coated human L1CAM). As for the experimental part: (§1) The affinities of the purified antibodies for human L1CAM were measured by competitive ELISA. Human L1CAM was prepared at a density of 1×10⁻⁶ M and serially diluted to 1×10⁻¹¹ M using a PBS buffer solution. Respective antibodies were prepared by diluting them in PBS buffer solution at particular concentrations according to their binding capacity. The antigens and antibodies thus diluted were reacted with each other at the same volume ratio, and allowed to react at room temperature for 2 hours.
(§2) 96-well plates (MaxiSorp, Nunc) were coated using the purified human L1CAM which were diluted in a buffer solution (15 mM Na₂CO₃, 34.84 mM NaHCO₃, pH 9.6) at a concentration of 100 ng/well, at 4° C. overnight. Next day, the wells were washed with 0.05% PBS-T buffer solution twice. Difco skim milk (BD) was dissolved in 0.05% PBS-T buffer solution at a concentration of 2%, and 200 μl thereof was added to each well, followed by incubation at room temperature for 1 hour. Then, the wells were washed with 0.05% PBS-T buffer solution twice. To the plate, 100 it of the antigen/antibody reactant that were reacted for 2 hours was added and allowed to react at room temperature for 1 hour. Then, the wells were washed with 0.05% PBS-T buffer solution three times to remove non-antigen bound antibodies. Goat anti-human IgG(Fc)-HRP (Pierce, 1/5000) that specifically recognizes the Fc region of human antibody was added as a secondary antibody, and allowed to react at room temperature for 1 hour. Then, the wells were washed with 0.05% PBS-T buffer solution four times to remove the remaining secondary antibodies. […] Then, 50 μl of 2.5 M H₂SO₄ solution was added to each well to terminate the enzymatic reaction. After terminating the reaction, absorbance was measured at 450 nm (VERSAmax microplate reader, Molecular Devices).
Background: In an ELISA, binding on a coated surface is turned into a signal by an enzyme label.

In experiment [2] the target is T1, human L1CAM (purified extracellular …). Nature of the experiment: Octet RED (called SPR in the filing), antibody on AHC sensor, soluble human L1CAM. As for the experimental part:
(§3) In addition to the competitive ELISA, SPR (surface […] resonance) was measured using Octet RED (ForteBio, USA) according to the manufacturer's protocol to determine the affinities of Ab417 antibody and Ab4M antibody for human and mouse L1CAM. […] AHC (anti-human IgG Fc capture) sensor chip was used to analyze binding kinetics of the antibodies to antigens by examining changes in refractive index which occurs upon association and dissociation of antibody and antigen while transferring the sensor chip to PBS solution, antibody, PBS solution, antigen, and PBS solution in this order.
For orientation: Biolayer interferometry detects binding as a change in optical thickness at a sensor tip.

Experiment [3] shares this target. In words: competitive ELISA. As to the method: as §1, §2
Affinity of the purified Ab417 antibody for human L1CAM was measured by competitive ELISA in the same manner as in Example 3-2.

Experiment [4] addresses T2, mouse L1CAM (purified extracellular domain with S1 tag) (mouse, UniProt P11627 20-1123).
T2 construct: extracellular domain; also called mouse L1CAM monomer; not shown: S1 tag from the pJEX2T vector
In words: Octet RED (called SPR in the filing), antibody on AHC sensor, soluble mouse L1CAM. As for the experimental part: as §3

Experiment [5] concerns the target T2, mouse L1CAM (purified extracellular …). Nature of the experiment: competitive ELISA with mouse L1CAM.
For experiment [6] the target is unchanged. In words: Octet RED, antibody on AHC sensor, soluble mouse L1CAM. As to the method: (§4) Affinities of Ab417, Ab417-H6L2 mutant, and Ab417-H6L6 mutant for human and mouse L1CAM were examined using Octet RED (fortebio). […] Each 200 it thereof was added to opaque 96-well plate to prevent light transmission. AHC (anti-human IgG Fc capture) sensor chip was used to analyze binding kinetics of the antibodies to antigens by examining changes in refractive index which occurs upon association and dissociation of antibody and antigen while transferring the sensor chip to PBS solution, antibody, PBS solution, antigen, and PBS solution in this order.
(§5) Despite amino acid substitution, there were no changes in the affinities of these antibodies (Table 4), and there were also no changes in the affinities of these antibodies for mouse L1CAM (Table 5).

Experiment [7] addresses T1, human L1CAM (purified extracellular …). In words: Octet RED, antibody on AHC sensor, soluble human L1CAM. As to the method: as §4, §5
Experiment [8] has as its target T2, mouse L1CAM (purified extracellular …). In words: indirect ELISA on coated mouse L1CAM, mutant IgG in culture supernatant, relative to Ab4. An excerpt:
The expression vectors of respective mutants were obtained in a large amount, and transfected to human embryonic kidney HEK293T cells using Lipofectamine 2000 (invitrogen), followed by culture. The transfected cells produce and secrete whole antibodies out of the cells, and the culture supernatants were collected and subjected to indirect ELISA as follows. 96-well plates (MaxiSorp, Nunc) were coated using the purified extracellular domain of human L1CAM (hereinafter, referred to as ‘human L1CAM’) and the extracellular domain of purified mouse L1CAM (hereinafter, referred to as ‘mouse L1CAM’) as antigens, which were diluted in a buffer solution (15 mM Na₂CO₃, 34.84 mM NaHCO₃, pH 9.6) at a concentration of 100 ng/well, at 4° C. overnight. Next day, the plate was washed with 0.05% PBS-T buffer solution twice. Difco skim milk (BD) was dissolved in 0.05% PBS-T buffer solution at a concentration of 2%, and 200 μl thereof was added to each well, followed by incubation at 37° C. for 1 hour. Then, the wells were washed with 0.05% PBS-T buffer solution twice. To the plate, 100 μl of the supernatant was added and allowed to react at 37° C. for 1 hour. Then, the wells were washed with 0.05% PBS-T buffer solution three times to remove non-antigen bound antibodies. Goat anti-human IgG(Fc)-HRP (Pierce, 1/5000) that specifically recognizes the Fc region of human antibody was added as a secondary antibody, and allowed to react at 37° C. for 1 hour. Then, the wells were washed with 0.05% PBS-T buffer solution four times to remove the remaining secondary antibodies.
Then, 50 μl of 2.5 M H₂SO₄ solution was added to each well to terminate the enzymatic reaction. After terminating the reaction, absorbance was measured at 450 nm (VERSAmax microplate reader, Molecular Devices).

T2 sequence (P11627 20-1123): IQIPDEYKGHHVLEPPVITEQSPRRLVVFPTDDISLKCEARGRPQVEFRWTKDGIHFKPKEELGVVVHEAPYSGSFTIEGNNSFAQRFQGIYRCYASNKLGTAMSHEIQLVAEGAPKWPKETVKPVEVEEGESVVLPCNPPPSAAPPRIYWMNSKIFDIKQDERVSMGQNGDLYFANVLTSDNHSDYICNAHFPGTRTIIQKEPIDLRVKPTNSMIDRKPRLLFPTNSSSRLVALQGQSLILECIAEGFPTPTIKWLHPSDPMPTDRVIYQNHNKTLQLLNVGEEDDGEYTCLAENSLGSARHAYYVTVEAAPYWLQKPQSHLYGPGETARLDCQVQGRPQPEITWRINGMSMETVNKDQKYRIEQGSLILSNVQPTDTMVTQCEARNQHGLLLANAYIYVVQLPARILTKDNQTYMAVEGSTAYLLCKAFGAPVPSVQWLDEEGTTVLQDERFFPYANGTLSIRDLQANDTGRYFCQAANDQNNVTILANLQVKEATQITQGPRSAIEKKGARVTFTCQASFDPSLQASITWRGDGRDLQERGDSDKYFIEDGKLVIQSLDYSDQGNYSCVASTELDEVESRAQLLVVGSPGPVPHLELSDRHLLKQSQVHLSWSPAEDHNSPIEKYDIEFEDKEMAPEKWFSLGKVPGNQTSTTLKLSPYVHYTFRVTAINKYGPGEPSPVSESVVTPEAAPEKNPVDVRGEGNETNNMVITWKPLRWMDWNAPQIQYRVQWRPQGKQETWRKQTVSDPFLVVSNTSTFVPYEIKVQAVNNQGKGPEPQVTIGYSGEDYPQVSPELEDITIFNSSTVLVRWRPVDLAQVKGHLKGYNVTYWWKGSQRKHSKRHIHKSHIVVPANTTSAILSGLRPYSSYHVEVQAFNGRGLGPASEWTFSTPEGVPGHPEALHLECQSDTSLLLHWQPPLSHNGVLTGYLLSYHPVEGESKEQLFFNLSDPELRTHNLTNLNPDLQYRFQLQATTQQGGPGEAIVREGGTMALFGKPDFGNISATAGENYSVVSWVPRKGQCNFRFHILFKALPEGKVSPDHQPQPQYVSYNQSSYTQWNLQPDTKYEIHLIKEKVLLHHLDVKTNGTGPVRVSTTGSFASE

B1: Ab4M antibody (antibody, IgG1, V domains shown)
VH: EVQLVESGGGVVQPGRSLRLSCAASGFTFSRFGMHWVRQAPGKGLEWVAFISNDGSNKYYADSVKGRFTISRDNSKNTLYLQMNSLRPEDTAVYYCARGRAYGSGSLFDPWGQGTLVTVSS
VL: DIQLTQSPSSLSASVGDRVTITCRASRTISIYVNWYRQRPGKAPESLIYAASNLHSGVPSRFSGSGSGTDFTLTISSLQPEDFATYYCQQTHATRQYTFGQGTKLEIK
notes: Ab4 with V50F and H97A in VH and V75I, G84A and D93A in VK; Whole IgG (IgG1 vector pdCMV-dhfrC-Ab4M)
On to B1, for which the Kd in experiment [1] is 2.9 nM; in experiment [2], 0.33 nM; in experiment [4], 0.0893 nM; in experiment [5], 0.22 nM. The koff in experiment [2] is 4.3e-05 s⁻¹; in experiment [4], 2.22e-05 s⁻¹. The kon in experiment [2] stood at 130000 M⁻¹ s⁻¹; in experiment [4], 249000 M⁻¹ s⁻¹. Also, the “fold higher affinity than Ab4” value in experiment [3] is roughly 45 fold; in experiment [5] it was roughly 8 fold.

B2: Ab417-H6L2 antibody (antibody, V domains shown)
VH: EVQLVESGGGVVQPGGSLRLSCAASGFTFSRFGMHWVRQAPGKGLEWVAFISNEGSNKYYADSVKGRFTISRDNSANTLYLQMNSLRAEDTAVYYCARGRAYGSGSLFDPWGQGTLVTVSS
VL: DIQLTQSPSSLSASVGDRVTITCRASRTISSYVNWYRQRPGKAPESLIYAASNLHSGVPSRFSGSGSGTDFTLTISSLQPEDFATYYCQQSIGRGVVTFGQGTKLEIK
notes: H6 is the Ab417 VH with R16G, D54E, K76A and P88A; L2 is the Ab417 VK with I31S; also called Ab417-H6L2 mutant; H6L2 mutant
As to B2, in experiment [6], the Kd turned out to be 0.131 nM, the koff was found to be 2.67e-05 s⁻¹ and the on-rate (kon) is 204000 M⁻¹ s⁻¹. In experiment [7], this molecule came in with a Kd of 0.22 nM, a koff of 3.22e-05 s⁻¹ and a kon of 146000 M⁻¹ s⁻¹.

B3: Ab417-H6L6 antibody (antibody, V domains shown)
VH: EVQLVESGGGVVQPGGSLRLSCAASGFTFSRFGMHWVRQAPGKGLEWVAFISNEGSNKYYADSVKGRFTISRDNSANTLYLQMNSLRAEDTAVYYCARGRAYGSGSLFDPWGQGTLVTVSS
VL: DIQLTQSPSSLSASVGDRVTITCRASRTISSYVNWYQQKPGQAPESLIYAASNLHSGVPSRFSGSGSGTDFTLTISSLQPEDFATYYCQQSIGRGVVTFGQGTKLEIK
notes: L6 is the Ab417 VK with I31S, R37Q, R39K and K42Q; also called Ab417-H6L6 mutant; H6L6 mutant
Turning to B3, in experiment [6], the dissociation constant (Kd) was determined as 0.0984 nM, the off-rate constant (koff) stood at 2.11e-05 s⁻¹ and the association rate constant (kon) stood at 214000 M⁻¹ s⁻¹. In experiment [7], this molecule had a Kd of 0.246 nM, a koff of 3.64e-05 s⁻¹ and a kon of 148000 M⁻¹ s⁻¹.

B4: G99A (antibody, V domains shown)
VH: EVQLVESGGGVVQPGRSLRLSCAASGFTFSRFGMHWVRQAPGKGLEWVAVISNDGSNKYYADSVKGRFTISRDNSKNTLYLQMNSLRPEDTAVYYCARGRHYASGSLFDPWGQGTLVTVSS
VL: DIQLTQSPSSLSASVGDRVTITCRASRTISIYVNWYRQRPGKAPESLIYAASNLHSGVPSRFSGSGSGTDFTLTVSSLQPEDFGTYYCQQTHDTRQYTFGQGTKLEIK
notes: whole IgG; also called Ab4 VH G99A (HCDR3 alanine mutant); copies: 2 + 2
Consider B4, for which the binding result in experiment [8] was “no binding”.

B5: H97A mutant of Ab4 antibody (antibody, IgG1, name in Kabat numbering, V domains shown)
VH: EVQLVESGGGVVQPGRSLRLSCAASGFTFSRFGMHWVRQAPGKGLEWVAVISNDGSNKYYADSVKGRFTISRDNSKNTLYLQMNSLRPEDTAVYYCARGRAYGSGSLFDPWGQGTLVTVSS
VL: DIQLTQSPSSLSASVGDRVTITCRASRTISIYVNWYRQRPGKAPESLIYAASNLHSGVPSRFSGSGSGTDFTLTVSSLQPEDFGTYYCQQTHDTRQYTFGQGTKLEIK
notes: Whole IgG made in the pdCMV-dhfrC-Ab4 vector (IgG1); also called VH H97A mutant of Ab4
Take B5: binding in experiment [1] was characterised by a dissociation constant (Kd) of 29 nM.

B6: Y98A (antibody, V domains shown)
VH: EVQLVESGGGVVQPGRSLRLSCAASGFTFSRFGMHWVRQAPGKGLEWVAVISNDGSNKYYADSVKGRFTISRDNSKNTLYLQMNSLRPEDTAVYYCARGRHAGSGSLFDPWGQGTLVTVSS
VL: DIQLTQSPSSLSASVGDRVTITCRASRTISIYVNWYRQRPGKAPESLIYAASNLHSGVPSRFSGSGSGTDFTLTVSSLQPEDFGTYYCQQTHDTRQYTFGQGTKLEIK
notes: whole IgG; also called Ab4 VH Y98A (HCDR3 alanine mutant); copies: 2 + 2
Take B6: the binding result in experiment [8] is on record as “no binding”.

B7: R96A (antibody, V domains shown)
VH: EVQLVESGGGVVQPGRSLRLSCAASGFTFSRFGMHWVRQAPGKGLEWVAVISNDGSNKYYADSVKGRFTISRDNSKNTLYLQMNSLRPEDTAVYYCARGAHYGSGSLFDPWGQGTLVTVSS
VL: DIQLTQSPSSLSASVGDRVTITCRASRTISIYVNWYRQRPGKAPESLIYAASNLHSGVPSRFSGSGSGTDFTLTVSSLQPEDFGTYYCQQTHDTRQYTFGQGTKLEIK
notes: whole IgG; also called Ab4 VH R96A (HCDR3 alanine mutant); copies: 2 + 2
Turning to B7, the binding result in experiment [8] is on record as “no binding”.

B8: V50F/H97A mutant of Ab4 antibody (antibody, name in Kabat numbering, V domains shown)
VH: EVQLVESGGGVVQPGRSLRLSCAASGFTFSRFGMHWVRQAPGKGLEWVAFISNDGSNKYYADSVKGRFTISRDNSKNTLYLQMNSLRPEDTAVYYCARGRAYGSGSLFDPWGQGTLVTVSS
VL: DIQLTQSPSSLSASVGDRVTITCRASRTISIYVNWYRQRPGKAPESLIYAASNLHSGVPSRFSGSGSGTDFTLTVSSLQPEDFGTYYCQQTHDTRQYTFGQGTKLEIK
notes: also called VH V50F/H97A mutant
As for B8, binding in experiment [1] was characterised by a dissociation constant (Kd) of 18 nM.

B9: D93A mutant of Ab4 antibody (antibody, IgG1, V domains shown)
VH: EVQLVESGGGVVQPGRSLRLSCAASGFTFSRFGMHWVRQAPGKGLEWVAVISNDGSNKYYADSVKGRFTISRDNSKNTLYLQMNSLRPEDTAVYYCARGRHYGSGSLFDPWGQGTLVTVSS
VL: DIQLTQSPSSLSASVGDRVTITCRASRTISIYVNWYRQRPGKAPESLIYAASNLHSGVPSRFSGSGSGTDFTLTVSSLQPEDFGTYYCQQTHATRQYTFGQGTKLEIK
notes: Whole IgG made in the pdCMV-dhfrC-Ab4 vector (IgG1); also called VK D93A mutant
In experiment [1], B9 registered a dissociation constant (Kd) of 30 nM.
